Measured values from paper PMC9528872 (Nature Communications, 2022).

B1: Ab 2-7 scFv (scFv, V domains shown)
VH: QVTLKESGPTRVKPTQTLTLTCTFSGFSLSTTGVGVGWIRQPPGKALEWLALIYWNDDKRYSPSLKSRLTITKDTSKNQVVLTMTNMDPVDTATYYCARISGSGYFYPFDIWGQGTTVTVSS
VL: NFMLTQPHSVSESPGKTVTISCTRSSGSIASNYVQWYQQRPGSSPTTVIYEDNQRPSGVPDRFSGSIDSSSNSASLTISGLKAEDEADYYCQSYDSSSLWVFGGGTKLTVL
B2: Ab 2-7 scFv-Fc (Fc fusion)
VH: QVTLKESGPTRVKPTQTLTLTCTFSGFSLSTTGVGVGWIRQPPGKALEWLALIYWNDDKRYSPSLKSRLTITKDTSKNQVVLTMTNMDPVDTATYYCARISGSGYFYPFDIWGQGTTVTVSS
VL: NFMLTQPHSVSESPGKTVTISCTRSSGSIASNYVQWYQQRPGSSPTTVIYEDNQRPSGVPDRFSGSIDSSSNSASLTISGLKAEDEADYYCQSYDSSSLWVFGGGTKLTVL

Columns and labels:
[1] = biological target: SARS-CoV-2 receptor binding domain (RBD), biotinylated (SARS-CoV-2, Wuhan-type, UniProt P0DTC2, biotin (BirA, on the Avi tag)); assay: BLI; conditions: both partners purified
[2] = biological target: T1, Tor2 SARS-CoV spike (Toronto, 2003) (SARS-CoV, strain Tor2); assay: ELISA; antibody at 2 ug/ml against Tor2 SARS-CoV spike
T1 construct: also called Tor2 spike protein

Row | Binder | Kd [1] [pM] | koff [1] [s⁻¹] | kon [1] [M⁻¹ s⁻¹] | binding result [2]
1 | B1 | 107 | 4.81e-05 | 452000 | –
2 | B2 | – | – | – | binds
